This is an account of results in a protein production outcome set (Wang et al. 2014).

The series in a line: label from the status in PepcDB records.

On to “MKILSFAVLAAICLPMMPITTFAAETSATNALSQSQLFSRGDEYANVKISPTGKYLSAITSVEGKNVLLVLDAQTKKLLNAIRFPSNAQVGTYEWASSERIVLAKEYLKGWSDVPQYYGELMAVNADGSRPAYLFGFNSGEQQTGSNIKKNTAIKATAFILDPLPDDERYMLVNAIPWNNESSLNLELKQDVYRVDLFSGVRKRITGSPIGQARFMTDHEGEVRFVTGEDGQNVTKVFYRKDGDWVNTDKLNLGLSDFTPISFADNKNTIYAAGRVGTETLGVYRINLETGEKTEIIQDEVVDPSNFWINGTNKQLYAVEFENGYPSYAFVDNNDNHAKLLKDLIAALPGHQVQIVSETRNGEQLVVIAFNDRNPGDYYLFDTKKLKLEYLAAARKWLDPEQMAEVKPISFTNRDGQKIHGYLTLPYGKEAKNLPLVVNPHGGPHGIRDWWGFDPQNQLLAQNGMAVLQVNFRGSGGYGERFEQAGYQKWGSDIQHDIIDATQYVIGQGFVDKERICIAGGSFGGYSALQSAVLAPDMFKCAVGFAGVYDLELMFDEGDVARTRSGTSYLKDVLGQDKATLKAMSPSENVAKLKANLLLVHGGEDERAPIEQLESLEKALKNHNYPYQKLVMDNEGHGFYNDTHRAKYYDQMLSFLKTNLKL”, for which the protein production result was “failed”.
On to “MKINKLLFGMLLLLLASCGSSRKVEKQSEQVAVQEINLTPEQQRKYDYFFLEASRLKVKKEYTAAFDLLQHCLAINPTGSAALYEIAQYYLFLKQAPQGQEALEKAVAYAPDNYWYSQALAGLYQQQDQKEKAIGILEKMATRFPAKQDPLFNLLDLYNQKEDYGKVISTLNRIEEKTGKNEQITMEKFRIYLQMKDDKKAFEEIESLVNEYPMDYRYQVILGDVYMQNGKKQEAYDTYKKVLAAEPDNPMALFSLASYYEQTGQKELFEQQMDTLLLNRKVPSDTKVNVMRQFIVQSEQEGKDSTQVIGLFDRMMQMDMDDVQIPMLYAQYLLSKGMEAQSIPVLEQVVQIDPTNKAARMTLLGSAIRKNDYEQVIKICEPGIEATPDALEFYFYLVIAYNQAEHWDDVLEVSRKALEHVTPESDKQMVSDFYTIIGDVYHTKKLMKEAYAAYDSALVYNPSNIGALNNYAYYLSVERRDLDKAEEMSYKTVKAAPNNATYLDTYAWILFEKGNYAEARIYIDDAIKNTKPEEESSVVFEHCGDIYFMTGDVEGALKYWKKALELGTESKTLKQKIEKKKYIAE”, for which the protein production entry is “failed”.
The result for “MKINMHILGLLVVVGLFSLQSCDDESYDIEGSNQNYVYINVNRWTSTEYPQNTFVYEVLRTPIGSSLESGPEIVKVGVRSTKVASKDITVTLDIDNCASIGEFSSFPDGVKVTLDKKELVIPAGSMLSSDSVTIEIEDGKWSEFVNTSYLLPLKVTSVSNAALSETHSSAYLAVSTSFTNCVPGATSVEGTLISDRSAWTATNNGVDVGTTLFDGNTRTYPSQDASSTVIVNLNGVYQNITGIRLQYYSRNYSLSSAAVYTSETGGEDYEYQGNVTFSRATPQYIRFYGAVSARYVKLELLPYSSGYGIVLSEFDMYQNE” reads “failed”; that for “MKIQDYTKQMVDEKSFIDMAYTLLNDKGETMNLYDIIDEFRALGDYEYEEIENRVVQFYTDLNTDGRFLNVGENLWGLRDWYSVDDIEEKIAPTIQKFDILDADDEEDQNLKLLGEDEMDDDDDIPAQTDDQEELNDPEDEQVEEEINHSDIVIEEDEDELDEDEEVFEDEEDFND”, “not failed”; that for “MKIRVADEKELPMILQFLTEVKAYMDVVGITQWTKDYPSQGDIQEDITKKRLYLLVHEEMIFSMATFCMEQEQDFVWLKRFATSPNYIAKGYGSLLFHELEKRAVWEGRRKMYAQTNHTNHRMIRFFESKGFTKIHESLQMNRLDFGSFYLYVKELENQSIV”, “not failed”.
On to “MKISFSESQKLFAYFSGLIAALSLFIYYVSAQQSEGALILCITFGVIAAGIWFGPIYALAVTLIVLFVLGTLMMFFQTGQTSLFPAEEGLRMLVVWGIALLLFSFISGRIHDITAELRRSMTRLQSEIKSYVAVDRVTGFDNKQRMKLELSEEIKRAERYGNSFVFLLLHMHYFKEFKSLYGEKETDRLFQYVGQQIRTSVRETDKKFRPSDERIGIVLTHTPAEHMPAVLTKLKKQLDTYQLENGKYVSLTFHVCYLPYRNDIQTADQFLEELENEMMMNEL”, for which the protein production result was “failed”.
The result for “MKITFISGQEVSLGTSFLLFSKKIVMNELNQPLLAIIKNVAKTKNLSIEEVVFCLKTALEQAYKKHLNFVNVEVNINFDKGIINVEQLFNVVSDENEDYDDFLEIPLQAANKINSSLQLGDVLRKPIPLKNISSDLINKMIAIFNQKISETNFKAVMSEFSSEVGEVIEAKVEDIDTNKEGGLKGYIINLETTKGYISKRELSKGERLEIGKKYLFVIKEIQRQASLWPITLSRSDTRLLQFLLTSNTPEIENGTIVIKKIERSPGVKSKIAVISNDPAVDPVAAILGPKGEKIRGISEEFNGEIIDIVFWNEDKLKFLINAILPAEVIGYNILQDDERDTSIEVVVPANQIANVFGFKGVNIRLISNLTGWNSVDVYSEKDASEANIKFTRLSFEPEGLFGIKKRREKIISNDATDKVFYTSKDNVIDDEIIVDLAKDLMVDNKQKQPEQVAKQVVEKSQLEKQVTPKEKEKVQPKAKVHSNSHSKKPAKPNQIFSITVDASDKNLKKDQVDNNQTNPQTKQTFDSFDDL” reads “failed”.
“MKITLEHWFYNWLFEYRIKDLKPKSFERYESIYRNYIKDTDLGNVKLKYLRVSHIQKYYNRLLDSNKSIPTIRQINTKLKTCLSEAEKQGLIQRNYCTMVNIPLEHHHHHH”: the protein production result is given as “not failed”.
“MKIVILGAGRVGSTVAESLASESNDITVVDLVRNRLSLLQERLDLRTVVGSASHPDIMIQAGMEDADMILALTGSDETNLVACKLAASMFNTPTRIARIRTVDYLDHPDIFSRENFCVDFAICPERILTKYIEKLIEFPGALQVLDFASGKVSLVAVKAIRGGPLIGRQLKELRRHVPNLDTRVAAIFRHNHPIIPEGSTIVEEGDEVFFIASSSDIRAVMGELRRMDKSVRRVMIAGGGRIGRRLAEVLQQSHQVRIIERDIKVCESLTQNLHNTLILHGNVTDEELLESENISEMDIFCALTDDEENNIMAALMAKRMGARKVIALINRSMYVDLMQDSGIDIAISPAQVTIGSLLAYVRQGDVAVVHSLRRGAAEALELVAHGDTRSSRVVGRKIEEIKLPRSTTIGAIVRGLPPGDVYRNLSEQEEDSILAQWKQAQVIIAHHDTVIEQNDHVILFVVNKKMVRQVEKLFQVNVGFL”: the protein production result was “failed”.
Turning to “MKIVSKSSPLPLHYQLKMILQEMIENEELLPGDTIPTERELCEIQKISRMTVNKAILSLVSEGILYREQGKGTFVAKKKEKQQLTKLKSFTEEMREKGLNISTKILSFEIKTATKHISTLLELPHKKMKVIEIIRLRLTDNDPSAIETVVLPLYLFSDMTKEVIDGKSLYNTFREKYGYEPTKAKQTIEPIMLTDYEAKFLNQVGNSLALLFRRLTYRKDGVPIEYTKSIYRSEKYKYEVILT”, the protein production result is given as “failed”.
Take “MKIYASDEQYKQMNEELDERVESLVSELTLDEKIRLMCQYQEAVPRLGIGKYKHGTEGAHGVAWLGKATVFPQNIGLGCTWNEELMKKIGDVIAEEARVYYQENPEQNGLTIWAPTVDMERDPRWGRTEEAYGEDPYLTGKLTTELIKGMQGDHPFYLKTAATLKHFLANNNEEARTECSVSIDPRNLREYYLKAFEPQVKEGHVQCVMTAYNAVNGTLCNMNPDVNAILKEEWGLQGFVVSDACDVVGSVDDHQFVESYAEAVALSIKNGIDNVTDDEKIIHRAIGDALEQGLLSEEDLDQALKRVFRVRIRLGEFDQENKNPYATVAKEKLCA”: the protein production entry is “failed”.
For “MKIYFEAYGCTLNQGETALYVNKLLNEGNTLVSNPKEADLSIIGTCAVIKKTEDHMMARIQNLSRFGKVEVIGCLAPVKGKTMVEDNVSVIEKDRFRSFQEVIDEVSPVNAEIVSGIPINQGCTGKCNFCVSHIARGKLVSRKPEKIAGQIKILLQRGIKEIKITSLDTAAYGKDIGLRLPHLIRTITEIGDDFRLRVGMMEPKNTLEIVDDLISAYRSEKVFKFLHLPVQSGDDYVLEVMNREYTVSDFIRITGKFREAFPDSTLSTDLIIGYYAENDDSFEKTVQLIEKIRPEIINVTKFSPRELTADFEKRPKPTNILKEQDRMIADMHKEILQEKFSNLIGKTEFVLITENGKGRSMIGRDHAYRPIVIMDKTRKFEFHQVEITGFENTSLIGRIIDLEHHHHHH” the value was “failed”; for “MKKAMLLIKNGKILTMTGVNYDSGSVLIDNGKIIKVGENIDVDESCEIIDADGFWVMPGIIEAHCHVGIQEEKRGFEGNDCNEMTNPVTPYLRALDGINPMDSAFYTALTAGITGIMVGPGSANVVGGQWMFLKTYGRAIDKMVVLQPSAMKIAFGENPKANYDKKNMMPSTRIAIAAMLREELFEAQQYYEKRKNAEKSGDSFNKEFRKECWVPVFDKKIPLKAHVHRADDILTAIRIAKEFNLNLTLDHCTEGHLVAKEIKESGFPAIVGPTLTSRNKIETQYADFKTAGILHNEGVKVAITTDHPVTRIQDLLICAGLAAKEGLGIEEGLKAITINPAEICNVANRVGSIEVNKDADIAIFDGNPMETFTKTMYTIINGEIVYSLKDKNY”, “failed”; for “MKKDLISVVMSAYNSEKFISDSISSILDQTYENWELIIINDASSDNTLKIVNQFSEKDPRIKVIDNENNLGLTISLNIGINNSKGEFIARLDSDDFAEPSRLEKELDHLHAYPEAGLVGSGAHLINSSGNKIGSMNVMSQPYFVNRFLINLNPFIHSSIMVRKKALDNVGSYREKFRYSQDYDLILRLSDKYKLSNIALPLIRWRVSDSSVTMQHHTLQRIYADIAREFAIERRNSGHDSYESTEFDTLIHEMRIRNQGRYLCDHGVYDLLFNKKYKEGCSELIKGISKGGFPYNSFYRGITQVISKVNIQLEHHHHHH”, “failed”.
On to “MKKEKKDYYEILGVPRDATQEEIKRAYKRLVKEWHPDRHPENRKEAEQRFKEIQEAYEVLSDPQKRAMYDRFGYVGEQPTYQETESGGFFDDIFRDFENIFNRDIFDVFFGERPHQEERREYARRGEDIRYEIEVTLSDLINGAEIPVEYERYETCPRCGGTGVEPNAGYMDCPSCGGTGRIREERRSFFGYFVSERTCERCGGTGKIPREYCHECGGSGRVLRKVRRTVKIPPNVEDGTHLRITGGGNAGYYGGPYGDLIIIVRVKPDPRFKKSGSDLVYDVTIDYLQAILGTTVEVPLPEGGTTMLKIPPGTQPETVFRLKGKGLPNRYGRRGDLIVNVHVEIPKSLSREERKVLEELAKKRGVTIG”, for which the protein production result was “failed”.
“MKKFKFTLFSLLVIIFSGLLIQRFSGYFYTTPVGIVKSVKIIDSEQLLTVKLVNNTKKTVVVKVKFNGNESTNPVFNKNNQILLDNSTKKWEFISLKRDGYTFILVVSFVSLVLGIAGKKGFFSLVGILFNIIFLFFLLWINQRNRSINLLLLISIYTIIAIIISTGTLYGLKKIDLRKVLATIFSVFLSYFITTITMKLLNDQGLRYEEMQFLTRPYRTVFLASLMLGGIGAALDNVVVIISSLDQLVRHTPEINTKELIESGKNIASDTTTSMINVLLFAYLSSATPFFIFYLANGWDFVETFKMHLSLEIMRILCGGLAILFTIPSSFLFFLLFKKIKKEGENR”: the protein production entry is “failed”.
For the sequence “MKKFPELRKYTNPVWVRLVILCQKKLKVCFIMFIVMSISTSAEIYYEEAEEFLSKGDLVQACEKYYKAAEEAIKLLVIENNLKEIINEAEEHGWDSKTLNDAVTELSYKLGDNIIDMWASAVTLFTARKFMDKDLIENYKKDIKTLIEEAKQRFSIKVLKLEHHHHHH”, the protein production result was “failed”.
For “MKKFSAIFGLLSVIFVIMAISQVSGLSGAITPPKIDIMVNASNGLPQDINSIIYVKNPNSFPVKVEMVTTGDLNNSKKVEVKIMKNNFTLKPGETVGVNITFTVKEKDNYEGDILTKISPVDYGDDKKGVNLKASVVLPTKVAIMVVGNEIHTKELVITAVLIISILGLGAMLIRRHL”, the protein production result is recorded as “failed”.
